Earlier results on one substance are cited in paper PMC3086721.

The target in this series is ubiquitin (Homo sapiens) (UniProt P0CG47).

Chain of E2-25K UBA (P61086 157-200): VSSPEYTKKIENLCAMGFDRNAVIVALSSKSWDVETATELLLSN

On to E2-25K UBA (from UniProt P61086), for which the Kd is 400 µM.

Broadly, the Kd is the free concentration of one partner at which half of the binding sites on the other are occupied at equilibrium, for simple one-to-one binding.
